Drawing on patent publication US20110118447A1, this text covers fold affinity vs original and fold difference in affinity vs original for 14 molecules.

Test [1] concerns the target binding partner of C5A (XPA23). The test is described as follows: Biacore. For orientation: SPR reads the build-up and loss of mass on a sensor chip optically.
Test [2] deals with binding partner of C5A (XPA23). As to the kind of experiment: Biacore, K-off.
The target in test [3] is binding partner of C5A (XPA23). The test is described as follows: Biacore K-off.

B1: C5A (XPA23) VH F35D (antibody, V domains shown)
VH: EVQLLESGGGLVQPGGSLRLSCAASGFTFSKYFMDWVRQAPGKGLEWVSVISPSGGMTRYADSVKGRFTISRDNSKNTLYLQMNSLRAEDTAVYYCARVGYGGNSDYWGQGTLVTVSS
VL: DIQMTQSPSSVSASVGDRLTIICRASQDINRWLAWYQQTPGNAPKLLIHSATSLQSGVPSRFSGSGSGTDFTLTINSLQPEDFATYYCQQADSFPLTFGGGTKVEIK
For the molecule B1, the fold affinity vs original in test [1] was found to be 0.06 fold. The fold difference in affinity vs original in test [2] is 0.06 fold.

B2: C5A (XPA23) VH F33A (antibody, V domains shown)
VH: EVQLLESGGGLVQPGGSLRLSCAASGFTFSKYAMFWVRQAPGKGLEWVSVISPSGGMTRYADSVKGRFTISRDNSKNTLYLQMNSLRAEDTAVYYCARVGYGGNSDYWGQGTLVTVSS
VL: DIQMTQSPSSVSASVGDRLTIICRASQDINRWLAWYQQTPGNAPKLLIHSATSLQSGVPSRFSGSGSGTDFTLTINSLQPEDFATYYCQQADSFPLTFGGGTKVEIK
With B2, the fold difference in affinity vs original in test [1] and in test [3] was 0.75 fold in each case.

B3: C5A (XPA23) VH F33G (antibody, V domains shown)
VH: EVQLLESGGGLVQPGGSLRLSCAASGFTFSKYGMFWVRQAPGKGLEWVSVISPSGGMTRYADSVKGRFTISRDNSKNTLYLQMNSLRAEDTAVYYCARVGYGGNSDYWGQGTLVTVSS
VL: DIQMTQSPSSVSASVGDRLTIICRASQDINRWLAWYQQTPGNAPKLLIHSATSLQSGVPSRFSGSGSGTDFTLTINSLQPEDFATYYCQQADSFPLTFGGGTKVEIK
Regarding B3, the fold difference in affinity vs original in test [1] and in test [3] was 0.76 fold in each case.

B4: C5A (XPA23) VH Y32L (antibody, V domains shown)
VH: EVQLLESGGGLVQPGGSLRLSCAASGFTFSKLFMFWVRQAPGKGLEWVSVISPSGGMTRYADSVKGRFTISRDNSKNTLYLQMNSLRAEDTAVYYCARVGYGGNSDYWGQGTLVTVSS
VL: DIQMTQSPSSVSASVGDRLTIICRASQDINRWLAWYQQTPGNAPKLLIHSATSLQSGVPSRFSGSGSGTDFTLTINSLQPEDFATYYCQQADSFPLTFGGGTKVEIK
As for B4, the fold difference in affinity vs original in test [1] and in test [3] was 0.75 fold throughout.

B5: C5A (XPA23) VH Y32V (antibody, V domains shown)
VH: EVQLLESGGGLVQPGGSLRLSCAASGFTFSKVFMFWVRQAPGKGLEWVSVISPSGGMTRYADSVKGRFTISRDNSKNTLYLQMNSLRAEDTAVYYCARVGYGGNSDYWGQGTLVTVSS
VL: DIQMTQSPSSVSASVGDRLTIICRASQDINRWLAWYQQTPGNAPKLLIHSATSLQSGVPSRFSGSGSGTDFTLTINSLQPEDFATYYCQQADSFPLTFGGGTKVEIK
On to B5, for which the fold difference in affinity vs original in test [1] and in test [3] was 1.07 fold in each case.

B6: C5A (XPA23) VH F33L (antibody, V domains shown)
VH: EVQLLESGGGLVQPGGSLRLSCAASGFTFSKYLMFWVRQAPGKGLEWVSVISPSGGMTRYADSVKGRFTISRDNSKNTLYLQMNSLRAEDTAVYYCARVGYGGNSDYWGQGTLVTVSS
VL: DIQMTQSPSSVSASVGDRLTIICRASQDINRWLAWYQQTPGNAPKLLIHSATSLQSGVPSRFSGSGSGTDFTLTINSLQPEDFATYYCQQADSFPLTFGGGTKVEIK
In the case of B6, the fold difference in affinity vs original in test [1] and in test [3] was 0.88 fold throughout.

B7: C5A (XPA23) VH F35K (antibody, V domains shown)
VH: EVQLLESGGGLVQPGGSLRLSCAASGFTFSKYFMKWVRQAPGKGLEWVSVISPSGGMTRYADSVKGRFTISRDNSKNTLYLQMNSLRAEDTAVYYCARVGYGGNSDYWGQGTLVTVSS
VL: DIQMTQSPSSVSASVGDRLTIICRASQDINRWLAWYQQTPGNAPKLLIHSATSLQSGVPSRFSGSGSGTDFTLTINSLQPEDFATYYCQQADSFPLTFGGGTKVEIK
In the case of B7, in test [1], the fold affinity vs original was determined as 0.68 fold. Moreover, in test [2], the fold difference in affinity vs original was found to be 0.68 fold.

B8: C5A (XPA23) VH F33W (antibody, V domains shown)
VH: EVQLLESGGGLVQPGGSLRLSCAASGFTFSKYWMFWVRQAPGKGLEWVSVISPSGGMTRYADSVKGRFTISRDNSKNTLYLQMNSLRAEDTAVYYCARVGYGGNSDYWGQGTLVTVSS
VL: DIQMTQSPSSVSASVGDRLTIICRASQDINRWLAWYQQTPGNAPKLLIHSATSLQSGVPSRFSGSGSGTDFTLTINSLQPEDFATYYCQQADSFPLTFGGGTKVEIK
As for B8, the fold affinity vs original in test [1] was 0.79 fold. Moreover, the fold difference in affinity vs original in test [3] was 0.79 fold.

B9: C5A (XPA23) VH F33P (antibody, V domains shown)
VH: EVQLLESGGGLVQPGGSLRLSCAASGFTFSKYPMFWVRQAPGKGLEWVSVISPSGGMTRYADSVKGRFTISRDNSKNTLYLQMNSLRAEDTAVYYCARVGYGGNSDYWGQGTLVTVSS
VL: DIQMTQSPSSVSASVGDRLTIICRASQDINRWLAWYQQTPGNAPKLLIHSATSLQSGVPSRFSGSGSGTDFTLTINSLQPEDFATYYCQQADSFPLTFGGGTKVEIK
With B9, the fold difference in affinity vs original in test [1] and in test [3] was 0.91 fold in each case.

B10: C5A (XPA23) VH Y32F (antibody, V domains shown)
VH: EVQLLESGGGLVQPGGSLRLSCAASGFTFSKFFMFWVRQAPGKGLEWVSVISPSGGMTRYADSVKGRFTISRDNSKNTLYLQMNSLRAEDTAVYYCARVGYGGNSDYWGQGTLVTVSS
VL: DIQMTQSPSSVSASVGDRLTIICRASQDINRWLAWYQQTPGNAPKLLIHSATSLQSGVPSRFSGSGSGTDFTLTINSLQPEDFATYYCQQADSFPLTFGGGTKVEIK
In the case of B10, the fold affinity vs original in test [1] was determined as 0.75 fold. For the same molecule, the fold difference in affinity vs original in test [3] is 0.75 fold.

B11: C5A (XPA23) VH Y32P (antibody, V domains shown)
VH: EVQLLESGGGLVQPGGSLRLSCAASGFTFSKPFMFWVRQAPGKGLEWVSVISPSGGMTRYADSVKGRFTISRDNSKNTLYLQMNSLRAEDTAVYYCARVGYGGNSDYWGQGTLVTVSS
VL: DIQMTQSPSSVSASVGDRLTIICRASQDINRWLAWYQQTPGNAPKLLIHSATSLQSGVPSRFSGSGSGTDFTLTINSLQPEDFATYYCQQADSFPLTFGGGTKVEIK
With B11, the fold difference in affinity vs original in test [1] and in test [3] was 0.68 fold each time.

B12: C5A (XPA23) VH F33V (antibody, V domains shown)
VH: EVQLLESGGGLVQPGGSLRLSCAASGFTFSKYVMFWVRQAPGKGLEWVSVISPSGGMTRYADSVKGRFTISRDNSKNTLYLQMNSLRAEDTAVYYCARVGYGGNSDYWGQGTLVTVSS
VL: DIQMTQSPSSVSASVGDRLTIICRASQDINRWLAWYQQTPGNAPKLLIHSATSLQSGVPSRFSGSGSGTDFTLTINSLQPEDFATYYCQQADSFPLTFGGGTKVEIK
As for B12, the fold difference in affinity vs original in test [1] and in test [3] was 0.76 fold each time.

B13: C5A (XPA23) VH F33I (antibody, V domains shown)
VH: EVQLLESGGGLVQPGGSLRLSCAASGFTFSKYIMFWVRQAPGKGLEWVSVISPSGGMTRYADSVKGRFTISRDNSKNTLYLQMNSLRAEDTAVYYCARVGYGGNSDYWGQGTLVTVSS
VL: DIQMTQSPSSVSASVGDRLTIICRASQDINRWLAWYQQTPGNAPKLLIHSATSLQSGVPSRFSGSGSGTDFTLTINSLQPEDFATYYCQQADSFPLTFGGGTKVEIK
Turning to B13, the fold difference in affinity vs original in test [1] and in test [3] was 0.75 fold each time.

B14: C5A (XPA23) VH F35S (antibody, V domains shown)
VH: EVQLLESGGGLVQPGGSLRLSCAASGFTFSKYFMSWVRQAPGKGLEWVSVISPSGGMTRYADSVKGRFTISRDNSKNTLYLQMNSLRAEDTAVYYCARVGYGGNSDYWGQGTLVTVSS
VL: DIQMTQSPSSVSASVGDRLTIICRASQDINRWLAWYQQTPGNAPKLLIHSATSLQSGVPSRFSGSGSGTDFTLTINSLQPEDFATYYCQQADSFPLTFGGGTKVEIK
Regarding B14, in test [1], the fold affinity vs original was 0.09 fold. In addition, in test [2], the fold difference in affinity vs original is 0.09 fold.
